Experiments:
[1] = biological target: T1, recombinant human CD3 epsilon/delta heterodimer (human, UniProt P07766 23-126; P04234 22-105); assay: BLI (Octet), mAb 5 ug/mL on FAB2G sensor, hCD3 E/D 200-50 nM
T1 construct: Recombinant heterodimer used as analyte in Octet; also called hCD3 E/D; human CD3E/D
Protocol: (§1) Samples were evaluated by flow cytometry analysis against Jurkat and human Pan-T cells (FIG. 1B) as well as by Octet against recombinant human CD3 proteins to evaluate apparent affinities and binding off-rates (Table 6, infra).

[2] = biological target: T2, recombinant human CD3 epsilon/gamma heterodimer (human, UniProt P07766 23-126; P09693 23-116); assay: BLI (Octet), mAb 5 ug/mL on FAB2G sensor, hCD3 E/G 200-50 nM;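 also: antibodies purified from hybridoma supernatants, measured by Octet binding to recombinant human CD3 protein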
T2 construct: Recombinant heterodimer used as analyte in Octet; also called hCD3 E/G
T2 sequence (P07766 23-126, chain 1 of 2): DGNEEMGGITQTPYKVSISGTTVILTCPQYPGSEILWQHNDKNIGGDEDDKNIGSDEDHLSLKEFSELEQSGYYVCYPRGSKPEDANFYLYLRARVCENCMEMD
T2 sequence (P09693 23-116, chain 2 of 2): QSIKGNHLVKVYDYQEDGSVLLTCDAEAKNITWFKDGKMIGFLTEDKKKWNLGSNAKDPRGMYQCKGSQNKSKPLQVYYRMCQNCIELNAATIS
Protocol: as §1

T1 sequence (P07766 23-126, stated change not applied, chain 1 of 2): as the sequence (P07766 23-126, chain 1 of 2) above
T1 sequence (P04234 22-105, stated change not applied, chain 2 of 2): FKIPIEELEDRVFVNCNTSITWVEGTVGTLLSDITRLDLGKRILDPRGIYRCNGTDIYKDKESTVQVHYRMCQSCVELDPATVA

Row | Binder | Kd [1] [nM] | Response [1] | koff [1] [s⁻¹] | kon [1] [M⁻¹ s⁻¹] | Kd [2] [nM] | Response [2] | koff [2] [s⁻¹] | kon [2] [M⁻¹ s⁻¹]
1 | ABL-CD3-72 (antibody, V domains shown, mAb purified from hybridoma; chimeric AlivaMab IgG (human VH, CH1 and upper hinge; mouse middle hinge, CH2, CH3; human light chain)) VH: EVQLVESGGGLVKPGGSLRLSCAASGFTFSTYIMNWVRQAPGKGLEWVSSISSSRSYIYYADSVKGRFTISRDNAKNSLYLQMNSLRAEDTAVYYCAREDRYRLFFDYWGQGTLVTVSS VL: NFMLTQPHSVSESPGKTVTISCTRSSGSIASNYVQWYQQRPGSSPTTVIYEDNQRPSGVPDRFSGSIDSSSNSASLTISGLKTEDEADYYCQSYDSSNRVFGGGTKLTVL | 109 | 0.17 | 0.07 | 641000 | 442 | 0.09 | 0.211 | 476000
2 | ABL-CD3-81 (antibody, V domains shown, mAb purified from hybridoma; chimeric AlivaMab IgG (human VH, CH1 and upper hinge; mouse middle hinge, CH2, CH3; human light chain)) VH: QVQLQESGPGLVKPSQTLSLTCTVSGGSISSGGYYWSWIRQHPGKGLEWIGYIYYSGSTYYNPSLKSRVTISVDTSKDQFSLKLSSVTAADTAVYYCARERKTSLPFDIWGQGTMVTVSS VL: NFMLTQPHSVSESPGKTVTISCTRSSGSIASNYVQWYQQRPGSSPTTVIYEDNQRPSGVPDRFSGSIDSSSNSASLTISGLKTEDEAYYYCQSFDSSNRVFGGGTKLTVL | 283 | 0.17 | 0.107 | 378000 | 912 | 0.04 | 0.692 | 759000
3 | ABL-CD3-83 (antibody, V domains shown, mAb purified from hybridoma; chimeric AlivaMab IgG (human VH, CH1 and upper hinge; mouse middle hinge, CH2, CH3; human light chain)) VH: EVQLVESGGGLVKPGGSLRLSCAASGFTFSSYSMNWVRQAPGKGLEWVSTISRSGGYIYDADSVKGRFTISRDNAKNSLYLQMNSLRAEDTAVYYCARDFNWTFDNWGQGTLVTVSS VL: NFMLTQPHSVSESPGKTVTISCTRSSGSIASNYVQWYQQRPGSSPTTVIYEDNQRPSGVPDRFSGSIDSSSNSASLTISGLKTEDEADYYCQSSDRSNVVFGGGTKLTVL | 22 | 0.03 | 0.00882 | 401000 | 37.6 | 0.01 | 0.00649 | 173000
4 | ABL-CD3-73 (antibody, V domains shown, mAb purified from hybridoma; chimeric AlivaMab IgG (human VH, CH1 and upper hinge; mouse middle hinge, CH2, CH3; human light chain)) VH: EVQLVESGGGLVKPGGSLRLSCAASGFTITSYSMNWVRQAPGKGLEWVSTFSRSSTYIYYADSVKGRFTISRDNAKNSLYLQMNSLRAEDTAVYYCAREKWDLLYFDYWGQGTLVTVSS VL: NFMLTQPHSVSESPGKTVTISCTRSSGSIASNYVQWYQQRPGSSPTTVIYEDNRRPSGVPDRFSGSIDSSSNSASLTISGLKTEDEADYYCQSYDNSNRVFGGGTTLTVL | 1.26 | 1.02 | 0.0001 | 79700 | 6.12 | 0.99 | 0.000472 | 77000
5 | ABL-CD3-69 (antibody, V domains shown, mAb purified from hybridoma; chimeric AlivaMab IgG (human VH, CH1 and upper hinge; mouse middle hinge, CH2, CH3; human light chain)) VH: EVQLVESGGGLVKPGGSLRLSCAASGFTFSTYTMNWVRQAPGKGLEWVSTITSSSRYIYYADSVKGRFTISRDNAKNSLYLQMNSLRAEDTAVYYCARVTFDAFDIWGQGTMVTVSS VL: NFMLTQPHSVSESPGKTVTISCTRSSGSIASNYVQWYQQRPGSSPTTVIYEDNQRPSGVPDRFSGSIDSSSNSASLTISGLKTEDEADYYCQSYDSSNRVFGGGTKLTVL | 8.14 | 0.87 | 0.000851 | 105000 | 3.73 | 0.88 | 0.000321 | 86100
6 | ABL-CD3-85 (antibody, V domains shown, mAb purified from hybridoma; chimeric AlivaMab IgG (human VH, CH1 and upper hinge; mouse middle hinge, CH2, CH3; human light chain)) VH: EVQLVESGGGLVKPGGSLRLSCAASGFTFSSYSMNWVRQAPGKGLEWVSSISRRSGYIYYADSVKGRFTLSRDNAKKSLYLQMNSLRAEDTAVYYCARDLNWAFDYWGQGTLVTVSS VL: NFMLTQPHSVSESPGKTVTISCTRSSGSIASNYVQWYQQRPGSSPTTVIYEDNHRPSGVPDRFSGSIDSSSNSASLTIAGLKTEDEADYYCQSCDSSNVVFGGGTKLTVL | 27.9 | 0.042 | 0.00689 | 247000 | 29.8 | 0.64 | 0.00608 | 204000
7 | ABL-CD3-84 (antibody, V domains shown, mAb purified from hybridoma; chimeric AlivaMab IgG (human VH, CH1 and upper hinge; mouse middle hinge, CH2, CH3; human light chain)) VH: EVQLVESGGGLVKPGGSLRLSCAASGFTFSNFIMNWVRQAPGKGLEWVSSISGSSNYIYYADSVKGRFTISGDNAKNSLYLQMNSLRAEDTAVYYCAREKWVLLFFDYWGQGTLVTVSS VL: NFMLTQPHSVSESPGKTVTISCTRSSGSIASNYVQWYQQRPGSSPTTMIYEDTQRPSGVPDRFSGSIDSSSNSASLTISGLKTEDEADYYCQSYDSSNRVFGGGTKLTVL | 143 | 0.22 | 0.0203 | 142000 | 145 | 0.1 | 0.0614 | 424000
8 | ABL-CD3-78 (antibody, V domains shown, mAb purified from hybridoma; chimeric AlivaMab IgG (human VH, CH1 and upper hinge; mouse middle hinge, CH2, CH3; human light chain)) VH: EVQLVESGGGLVKPGGSLRLSCAASGFTVSNYSMNWVRQAPGKGLEWVSCISRSSSYIYYADSVKGRFTISRDNAKNSLFLQMNSLRAEDTAVYYCARERWELLYFDYWGQGTLVTVSS VL: NFMLTQPHSVSESPGKTVTISCTRSSGSIASNYVQWYQQRPGSSPTTVIYEDNQRPSGVPDRFSGSIDSSSNSASLTISGLKTEDEADYYCQSFDGSNRVFGGGTKLTVL | 6.64 | 0.56 | 0.000568 | 85600 | 21.4 | 0.5 | 0.00157 | 73500
9 | ABL-CD3-68 (antibody, V domains shown, mAb purified from hybridoma; chimeric AlivaMab IgG (human VH, CH1 and upper hinge; mouse middle hinge, CH2, CH3; human light chain)) VH: EVQLVESGGGLVKPGGSLRLSCAASGFTFSSSIMNWVRQAPGKGLEWVSSISGSSSYIYYADSVKGRFTISRDNAKNSQYLQMKSLRAEDTAVYYCARERWNLLYFDYWGQGTLVTVSS VL: not shown | 4.2 | 0.3 | 0.000973 | 232000 | 6.43 | 0.28 | 0.00157 | 244000
10 | ABL-CD3-79 (antibody, V domains shown, mAb purified from hybridoma; chimeric AlivaMab IgG (human VH, CH1 and upper hinge; mouse middle hinge, CH2, CH3; human light chain)) VH: EVQLVESGGGLVKPGGSLRLSCAASGFTVSNYSMNWVRQAPGKGLEWVSCISRSSSYIYYADSVKGRFTISRDNAKNSLFLQMNSLRAEDTAVYYCARERWELLYFDYWGQGTLVTVSS VL: QTVVTQEPSFSVSPGGTVTLTCGLSSGSVSTSYYPSWYQQTPGQAPRTLIYSTNTRSSGVPDRFSGSILGNKAALTITGAQADDESDYYCVLYMGSGIWVFGGGTKLTVL | 120 | 0.22 | 0.0473 | 393000 | 412 | 0.07 | 0.162 | 393000
11 | ABL-CD3-77 (antibody, V domains shown, mAb purified from hybridoma; chimeric AlivaMab IgG (human VH, CH1 and upper hinge; mouse middle hinge, CH2, CH3; human light chain)) VH: EVQLVESGGGLVKPGGSLRLSCAASGFTFSSYSMNWVRQAPGKGLEWVSSISSSSSYIYYADSVKGRFTISRDNAKNSLYLQMNSLRAEDTAVYYCARDGELGIGTYFDYWGQGTLVTVSS VL: QSVLTQPPSVSGAPGQRVTISCTGSSSNIGAGYDVHWYQQLPGTAPKLLIYGNSNRPSGVPDRFSGSKSGTSASLAITGLQAEDEADYYCQSYDSSLSGSVFGGGTKLTVL | < 0.001 | 0.01 | 0.0135 | – | < 0.001 | -0.01 | < 1e-07 | 50000
12 | ABL-CD3-74 (antibody, V domains shown, mAb purified from hybridoma; chimeric AlivaMab IgG (human VH, CH1 and upper hinge; mouse middle hinge, CH2, CH3; human light chain)) VH: EVQLVESGGGLVKPGGSLRLSCAASGFTFSSYSMKWVRQAPGKGLEWVSSISSSSSYIYYADSVKGRFTISRDNAKNSLYLQMNSLRAEDTAVYYCARDRGELTLWYWGQGTLVTVSS VL: SYELTQPPSVSVSPGQTARITCSGDALPKKYAYWYQQKSGQAPVLVIYEDSKRPSGIPERFSGSSSGTMATLTISGAQVEDEADYYCYSTDSSGNHWVFGGGTKLTVL | 55.6 | 0.24 | 0.026 | 467000 | 124 | 0.13 | 0.0609 | 492000
13 | ABL-CD3-82 (antibody, V domains shown, mAb purified from hybridoma; chimeric AlivaMab IgG (human VH, CH1 and upper hinge; mouse middle hinge, CH2, CH3; human light chain)) VH: EVQLVESGGGLVKPGGSLRLSCAASGFTFSSYSMNWVRQAPGKGLEWVSSISSSSSYIYYADSVKGRFTISRDNAKNSLYLQMNSLRAEDTAVYYCARDRRELLLDYWGQGTLVTVSS VL: SYELTQPPSVSVSPGQTARITCSGDALPKKYAYWYQQKSGQAPVLVIYEDSKRPSGIPERFSGSSSGTMATLTISGAQVEDEADYYCYSTDSSGNHSWVFGGGTKLTVL | 10.6 | 0.02 | 0.00192 | 182000 | 3.18 | 0.02 | 0.00197 | 620000
14 | ABL-CD3-80 (antibody, V domains shown, mAb purified from hybridoma; chimeric AlivaMab IgG (human VH, CH1 and upper hinge; mouse middle hinge, CH2, CH3; human light chain)) VH: EVQLVESGGGLVKPGGSLRLSCAASGFTFSGYSMNWVRQAPGKGLEWVSSISSRSRYIYYADSVQGRFTISRDNSKNSLFLQMNSLRAEDTAVYYCGRDWRELLLDYWGQGTLVTVSS VL: SYELTQPPSVSVSPGQTARITCSGDALPKKYAYWYQQKSGQAPVLVIYEDSKRPSGIPERFSGSSSGTMATLTISGAQVEDEADYYCYSTDSSGNHSWVFGGGTKLTVL | 125 | 0.36 | 0.0108 | 86200 | 148 | 0.11 | 0.036 | 243000
15 | ABL-CD3-75 (antibody, V domains shown, mAb purified from hybridoma; chimeric AlivaMab IgG (human VH, CH1 and upper hinge; mouse middle hinge, CH2, CH3; human light chain)) VH: EVQLVESGGGLVKPGGSLRLSCAASGFTFSTYSLNWVRQAPGKGLEWVSSISVSSRYIYFADSVKGRFTISRDNAKNSLYLQMNSLRAEDTAVYYCARDRRELLLDYWGQGTLVTVSS VL: SYELTQPPSVSVSPGQTARITCSGDALPKKYAYWYQQKSGQAPVLVIYEDSKRPSGIPERFSGSSSGTMATLTISGAQVEDEADYYCYSTDSSGNHNWVFGGGTKLTVL | 29.6 | 0.56 | 0.00726 | 245000 | 159 | 0.19 | 0.0593 | 373000
16 | ABL-CD3-76 (antibody, V domains shown, mAb purified from hybridoma; chimeric AlivaMab IgG (human VH, CH1 and upper hinge; mouse middle hinge, CH2, CH3; human light chain)) VH: EVQLVESGGGLVKPGGSLRLSCAASGFTFSNYYMNWVRQAPGKGLERVSSISSSSNYIYYADSVKGRFTISRDNAKNSLYLQMNSLRAEDTAVYYCARDRRELPLDYWGQGTVVTVSS VL: SYELTQPPSVSVSPGQTARITCSGDALPKKYAYWYQQKSGQAPVLVIYEDSKRPSGIPERFSGSSSGTMATLTISGAQVEDEADYYCYSTDSSGNHWVFGGGTKLTVL | 48.2 | 0.53 | 0.0125 | 260000 | 134 | 0.24 | 0.0461 | 345000

— patent US20260167721A1 (ABLEXIS, published 2026)
